Patent US20250042994A1 (HAINAN SIMCERE ZAIMING PHARMACEUTICAL, published 2025)

T1: human CD19 on CHO-K1-human CD19 cells (human, UniProt P15391 20-556)
T1 construct: whole, on cells; also called CHO-K1-human CD19-2C8
T1 sequence (looked up): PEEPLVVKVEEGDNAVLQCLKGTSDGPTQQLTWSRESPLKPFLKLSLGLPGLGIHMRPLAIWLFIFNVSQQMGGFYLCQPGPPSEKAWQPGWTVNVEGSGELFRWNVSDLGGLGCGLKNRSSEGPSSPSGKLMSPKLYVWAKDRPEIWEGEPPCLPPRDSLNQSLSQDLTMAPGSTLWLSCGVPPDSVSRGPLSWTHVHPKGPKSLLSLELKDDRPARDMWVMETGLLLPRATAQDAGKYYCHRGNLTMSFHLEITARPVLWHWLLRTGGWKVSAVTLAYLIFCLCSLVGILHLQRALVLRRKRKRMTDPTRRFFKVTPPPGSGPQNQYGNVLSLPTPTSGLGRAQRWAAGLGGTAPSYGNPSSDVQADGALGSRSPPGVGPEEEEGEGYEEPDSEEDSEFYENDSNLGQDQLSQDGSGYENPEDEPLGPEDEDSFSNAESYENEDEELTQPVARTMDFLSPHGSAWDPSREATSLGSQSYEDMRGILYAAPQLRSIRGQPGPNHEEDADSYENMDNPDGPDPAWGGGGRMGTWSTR

T2: human CD19 on Raji cells (human, UniProt P15391 20-556)
T2 construct: whole, on cells
T2 sequence (looked up): T1 sequence (looked up)

T3: cynomolgus monkey CD19 on peripheral blood B cells (cynomolgus monkey (Macaca fascicularis), UniProt A0A2K5W8L9 20-557)
T3 construct: whole, on cells; also called cynomolgus monkey B cells
T3 sequence: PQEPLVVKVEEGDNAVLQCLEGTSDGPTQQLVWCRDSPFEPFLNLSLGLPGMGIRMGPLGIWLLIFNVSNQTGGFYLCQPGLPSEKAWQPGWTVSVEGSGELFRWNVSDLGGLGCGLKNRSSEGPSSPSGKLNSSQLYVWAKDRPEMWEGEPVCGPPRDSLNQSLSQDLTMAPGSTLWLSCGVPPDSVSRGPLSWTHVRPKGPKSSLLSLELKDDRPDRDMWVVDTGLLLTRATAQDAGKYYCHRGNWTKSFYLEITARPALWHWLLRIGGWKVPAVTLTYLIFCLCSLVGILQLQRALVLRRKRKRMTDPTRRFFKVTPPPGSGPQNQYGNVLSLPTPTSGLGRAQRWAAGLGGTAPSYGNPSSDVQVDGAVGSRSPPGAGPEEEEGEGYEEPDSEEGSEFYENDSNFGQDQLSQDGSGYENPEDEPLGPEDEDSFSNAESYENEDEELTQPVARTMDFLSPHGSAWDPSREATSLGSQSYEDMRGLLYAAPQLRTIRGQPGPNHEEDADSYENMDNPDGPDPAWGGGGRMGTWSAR

B1: F4.180.1 (antibody, human IgG1, V domains shown)
VH: EVQLQQSAPELVKPGASVKMSCKTSGYTFTENIIHWVKQTHGKSLEWIGGINPDNGGTSYHQKFKGRTTLTIDKSSSTAYMELRSLTSDDSAVFFCARQAPLYWYFDIWGAGTTVTVSS
VL: DIVLTQSPASLAVSLGQRATISCRASESVDSYGNSLMHWFQQKPGQPPRLLIYRASNLESGIPARFSGSGSRTDFTLTITPVEADDVATYYCQQSNEDPWTFGGGTKLEIK
notes: human-murine chimeric antibody, human IgG1
B2: F5.10.6 (antibody, human IgG1, V domains shown)
VH: DVQLQESGPGLVKPSQSLSLTCSVTDYSITSGYYWTWIRQFPGNKLEWMGYISYDGSTNYNPSLKNRFSITRDTSKNQFFLKLNSVIIEDTATYYCARDRMSTTWYFDVWGTGTTVTVSS
VL: DIVLTQSPASLAVSLGQRATISCRASESVDNYGISFMHWYQQKPGQPPKLLIYRASKTESGIPARFSGSGSRTDFTLTINPVETDDVATYYCQQSNKYPRTFGGGTKVEIK
notes: as for B1
B3: F5.8.6 (antibody, human IgG1, V domains shown)
VH: QVQLHQPGAELVMPGASVTLSCKASGYTFTSYWMHWVKQRPGQGLEWIGEIDPSDSYTTYDQKFKGKATLTVDKFSSTAYMQFSSLTSEDSAVYYCARLTGNHLDYWGQGTTLTVSS
VL: DIVMTQSHKFMSSSVGDRVSITCKASQDVSPAVAWYQQKPGQSPKLLIYSTSYRNTGVPDRFTGSGSGTDFTFTISSVQAEDLAVYYCQQHYSIPLTFGAGTKLELK
notes: as for B1
B4: F5.2.9 (antibody, human IgG1, V domains shown)
VH: QVTLKESGPGILQPSQTLSLTCSFSGFSLSTFGLGVGWVRQPSGKGLEWLAHIWWDDDKYYNPALKSRVTVSKETSKNQVFFKIANVDTADSATYYCARLSRGLRRDVVYAMDHWGQGTSVTVSS
VL: DIQMTQTTSSLSASLGDRVTISCRASQDISNYLNWYQQKPDGSVKLLISYVSRLQSGVPSRFRGSGSGTDYSLTISNLDQEDIATYFCQQGIAFPYTFGGGTKLDIK
notes: as for B1
B5: F5.3.6 (antibody, human IgG1, V domains shown)
VH: DVQLQESGPGLVKPSQSQSLTCSVTGYSITSGYYWNWIRQFPGNKLEWMGYISYDGSNNYNPSLKNRISITRDTSKNQFFLKLNSVTTEDTVTYYCARAPLTGDRYWYFDVWGTGTTVTVSS
VL: DIVLTQSPASLAVSLGQRATISCRASQSVSTSSYSYMHWYQQKPGQTPKLLIKYASNLKSGVPARFSGSGSGTDFTLNIHPVEEEDTATYYCQHSWEIPPTFGGGTKLEIK
notes: as for B1
B6: F4.272.13 (antibody, human IgG1, V domains shown)
VH: QVQLKESGPGLVAPSQSLSITCTVSGFSLTDYGVSWIRQPPGKGLEWLGVIWGSETTFYNSALKSRLSISKDNSKSQLFLQMNSLQADDTAIYYCAKHHYYGGSFSMDYWGQGTSVTVSS
VL: DIQMTQTTSSLSASLGDRVTISCRASQDINNYLNWYQQKPDGTVKFLIYYTSRLHSGVPSRFSGSGSGTDYSLTISDLEQEDIATYFCQQGNTLPYTFGGGTKLEIK
notes: as for B1

Molecular target: T1, human CD19 on CHO-K1-human CD19 cells
Assay: FACS on CHO-K1-human CD19 cells
From the text: (§1) The desired cells were scale-up cultured in a T-75 cell culture flask to the logarithmic growth phase. For the adherent cell CHO-K1, the medium was aspirated, the cells were washed 2 times with a PBS buffer, and then digested with trypsin. After the digestion was terminated, the cells were washed 2 times with a PBS buffer; and for suspension cell Raji, the supernatant of the medium was discarded by directly centrifugation, and the cell pellet was washed 2 times with PBS. After counting the cells in the previous step, the cell pellet was resuspended with [PBS+2% (w/w) BSA] blocking solution to 2×10⁶ cells/ml, and added to a 96-well FACS reaction plate at 50 μl/well, and then the sample to be tested was added at 50 μl/well, and incubated on ice for 2 h. The obtained mixture was centrifuged and washed 3 times with a PBS buffer. […] The obtained mixture was centrifuged and washed 5 times with a PBS buffer, and FACS (FACS Canto™, purchased from BD Company) was used for detection and result analysis. Data analysis was performed by software (FlowJo) to obtain the mean fluorescence intensity (MFI) of the cells. And then software (GraphPad Prism8) was used for analysis, data fitting, and EC50 value calculation. […] The same method was used to detect the binding of the chimeric antibodies to endogenous CD19-negative cells, MoLT4 cells (purchased from ATCC, CRL-1582), and CHO-K1 cells.

Binder | EC50 | Maximum mean fluorescence intensity
B1 | 1.24 nM | 49600
B2 | 2.6 nM | 47700
B3 | 3.5 nM | 53600
B4 | 1.02 nM | 34000
B5 | 3.62 nM | 46900
B6 | 0.77 nM | 55300

Molecular target: T4, monkey CD19 on HEK293T-monkey CD19 cells (monkey)
T4 construct: whole, on cells
Assay: FACS on HEK293T-monkey CD19 cells
Experimental: as §1, with “After” for “The desired cells were scale-up cultured in a T-75 cell culture flask to the logarithmic growth phase. For the adherent cell CHO-K1, the medium was aspirated, the cells were washed 2 times with a PBS buffer, and then digested with trypsin. After”
HEK293T-monkey CD19 cells were subjected to FACS detection and data analysis according to the method in example 5.2. […] The same method was used to detect binding of the chimeric antibodies to HEK293T cells.

Binder | Maximum mean fluorescence intensity | EC50
B1 | 94 | 
B2 | 99900 | 4.98 nM
B3 | 43800 | 5.7 nM
B4 | 81500 | 2.82 nM
B5 | 26100 | 20.7 nM
B6 | 40500 | 3.86 nM

Molecular target: T2, human CD19 on Raji cells
Assay: FACS on Raji cells
From the text: as §1

Binder | EC50 | Maximum mean fluorescence intensity
B1 | 0.96 nM | 23700
B2 | 1.34 nM | 22100
B3 | 1.26 nM | 27300
B4 | 2.79 nM | 17600
B5 | 3.19 nM | 22400
B6 | 0.81 nM | 27600

Molecular target: T3, cynomolgus monkey CD19 on peripheral …
Assay: FACS, cynomolgus PBMC, CD20+ B cells
Experimental: The monkey peripheral blood mononuclear cells were extracted from fresh cynomolgus monkey peripheral blood (purchased from Shanghai Medicilon Inc.) according to the instructions of Ficoll-Paque Plus (purchased from GE Healthcae, catalog number: 171440-02). After the cell suspension was centrifuged, the cells were resuspended in PBS containing 1% BSA, and then the cells were counted. […] The mixture was incubated for 1 h at room temperature. After washing the cells three times, APC-labeled secondary antibody anti-human IgG Fc (catalog number: 409306, purchased from Biolegend) was added. After incubation at room temperature in the dark for 30 minutes, the cells were washed 5 times, gently resuspended with PBS containing 1% BSA, and detected and analyzed by FACS (FACS Canto™, purchased from BD Company), in which CD20 was used as a marker of B cells to gate the CD20-positive B cell population, the proportion of the chimeric antibody-labeled positive cells was analyzed, and the proportion of the chimeric antibody positive cell population to B cell population was calculated after treatments with the chimeric antibodies at the concentrations of 100 nM, 10 nM and 1 nM, respectively.

Binder | Proportion of chimeric antibody positive cells to B cells (%) at 1 nM | Proportion of chimeric antibody positive cells to B cells (%) at 10 nM | Proportion of chimeric antibody positive cells to B cells (%) at 100 nM
B2 | 61% | 97% | 99%
B3 | 5% | 13% | 18%
B4 | 93% | 98% | 98%
B5 | 2% | 7% | 12%
B6 | 1% | 2% | 9%
